Results as given in paper PMC8565349 (Nucleic Acids Research, 2021).

T1: purified S. aureus β-clamp (ITC sample) (S. aureus, UniProt P0A024 1-377)
T1 sequence: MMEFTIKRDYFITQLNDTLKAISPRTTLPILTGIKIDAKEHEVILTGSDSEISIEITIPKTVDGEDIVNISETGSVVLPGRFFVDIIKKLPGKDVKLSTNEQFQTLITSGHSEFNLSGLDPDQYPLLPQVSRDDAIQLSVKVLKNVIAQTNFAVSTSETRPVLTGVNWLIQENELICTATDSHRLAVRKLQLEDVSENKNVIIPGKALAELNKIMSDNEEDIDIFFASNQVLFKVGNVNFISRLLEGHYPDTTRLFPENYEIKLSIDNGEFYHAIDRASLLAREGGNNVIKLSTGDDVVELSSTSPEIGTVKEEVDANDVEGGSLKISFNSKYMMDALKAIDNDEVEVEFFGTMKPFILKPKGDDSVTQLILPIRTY


What was measured:
SEC-MALS = target: the molecule itself; assay: SEC-MALS
cryo-EM structure = target: the molecule itself; assay: cryo-EM structure
[1] = target: T1, purified S. aureus β-clamp (ITC sample); assay: ITC
SEC = target: the molecule itself; assay: SEC

Row | Binder | stoichiometry N (SEC-MALS) | stoichiometry N (cryo-EM structure) | Kd [1] | stoichiometry N [1] | stoichiometry N (SEC)
1 | polyhistidine-tagged Gp168 of bacteriophage Twort (natural protein) MLFFKEKFYNELSYYRGGHKDLESMFELALEYIEKLEEEDEQQVTDYENAMEEELRDAVDVIESQLEIIKDIVR | 6 | 2 | 95 ± 16.7 nM | 0.16 ± 0.003 | –
2 | polyhistidine-tagged Gp168 Y14A (natural protein, bacteriophage Twort) MLFFKEKFYNELSAYRGGHKDLESMFELALEYIEKLEEEDEQQVTDYENAMEEELRDAVDVIESQLEIIKDIVR | – | – | – | – | 6
